Among the data in publication PMC4462945 (Molecular Biology of the Cell, 2015) are Kd values, retold here.

Assay in all cases: pull-down
The target in one experiment is T1, GST-FliI LRR (mouse).
T1 sequence (Q9JJ28 whole entry, looked up): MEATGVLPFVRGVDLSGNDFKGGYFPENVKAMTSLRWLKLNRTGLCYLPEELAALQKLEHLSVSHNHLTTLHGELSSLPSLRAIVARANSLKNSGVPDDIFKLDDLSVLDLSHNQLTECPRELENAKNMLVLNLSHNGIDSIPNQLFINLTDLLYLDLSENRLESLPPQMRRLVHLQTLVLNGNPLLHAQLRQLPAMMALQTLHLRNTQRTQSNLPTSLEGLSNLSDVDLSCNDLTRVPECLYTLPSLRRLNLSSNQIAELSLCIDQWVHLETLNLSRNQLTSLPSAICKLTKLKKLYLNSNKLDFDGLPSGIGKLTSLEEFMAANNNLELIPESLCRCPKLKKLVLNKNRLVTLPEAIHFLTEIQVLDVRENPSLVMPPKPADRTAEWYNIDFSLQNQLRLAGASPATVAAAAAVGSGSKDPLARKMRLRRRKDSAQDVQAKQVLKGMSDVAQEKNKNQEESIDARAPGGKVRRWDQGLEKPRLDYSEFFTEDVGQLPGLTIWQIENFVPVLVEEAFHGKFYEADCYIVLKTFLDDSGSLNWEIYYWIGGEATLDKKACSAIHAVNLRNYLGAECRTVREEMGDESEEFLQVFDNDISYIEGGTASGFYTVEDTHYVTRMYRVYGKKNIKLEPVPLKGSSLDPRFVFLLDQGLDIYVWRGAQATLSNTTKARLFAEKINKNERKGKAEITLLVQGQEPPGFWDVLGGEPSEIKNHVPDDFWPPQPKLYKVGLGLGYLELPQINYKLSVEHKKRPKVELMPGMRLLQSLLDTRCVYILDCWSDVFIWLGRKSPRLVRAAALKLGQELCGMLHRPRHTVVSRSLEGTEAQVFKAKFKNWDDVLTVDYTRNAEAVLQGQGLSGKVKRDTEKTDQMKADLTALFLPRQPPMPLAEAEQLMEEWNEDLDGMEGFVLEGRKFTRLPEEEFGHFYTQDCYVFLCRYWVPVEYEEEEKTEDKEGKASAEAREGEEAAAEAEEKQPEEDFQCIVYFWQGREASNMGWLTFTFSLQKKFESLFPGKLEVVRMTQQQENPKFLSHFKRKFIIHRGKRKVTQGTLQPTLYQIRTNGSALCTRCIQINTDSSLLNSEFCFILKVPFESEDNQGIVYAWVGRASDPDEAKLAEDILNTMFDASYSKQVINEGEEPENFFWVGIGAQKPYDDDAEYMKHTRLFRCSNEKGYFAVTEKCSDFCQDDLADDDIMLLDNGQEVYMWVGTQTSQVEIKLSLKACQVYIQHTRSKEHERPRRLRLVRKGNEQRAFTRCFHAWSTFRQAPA

Another experiment addresses T2, GST-FliI GLD 1–6 (mouse, UniProt Q9JJ28 398-1271).
T2 sequence (looked up): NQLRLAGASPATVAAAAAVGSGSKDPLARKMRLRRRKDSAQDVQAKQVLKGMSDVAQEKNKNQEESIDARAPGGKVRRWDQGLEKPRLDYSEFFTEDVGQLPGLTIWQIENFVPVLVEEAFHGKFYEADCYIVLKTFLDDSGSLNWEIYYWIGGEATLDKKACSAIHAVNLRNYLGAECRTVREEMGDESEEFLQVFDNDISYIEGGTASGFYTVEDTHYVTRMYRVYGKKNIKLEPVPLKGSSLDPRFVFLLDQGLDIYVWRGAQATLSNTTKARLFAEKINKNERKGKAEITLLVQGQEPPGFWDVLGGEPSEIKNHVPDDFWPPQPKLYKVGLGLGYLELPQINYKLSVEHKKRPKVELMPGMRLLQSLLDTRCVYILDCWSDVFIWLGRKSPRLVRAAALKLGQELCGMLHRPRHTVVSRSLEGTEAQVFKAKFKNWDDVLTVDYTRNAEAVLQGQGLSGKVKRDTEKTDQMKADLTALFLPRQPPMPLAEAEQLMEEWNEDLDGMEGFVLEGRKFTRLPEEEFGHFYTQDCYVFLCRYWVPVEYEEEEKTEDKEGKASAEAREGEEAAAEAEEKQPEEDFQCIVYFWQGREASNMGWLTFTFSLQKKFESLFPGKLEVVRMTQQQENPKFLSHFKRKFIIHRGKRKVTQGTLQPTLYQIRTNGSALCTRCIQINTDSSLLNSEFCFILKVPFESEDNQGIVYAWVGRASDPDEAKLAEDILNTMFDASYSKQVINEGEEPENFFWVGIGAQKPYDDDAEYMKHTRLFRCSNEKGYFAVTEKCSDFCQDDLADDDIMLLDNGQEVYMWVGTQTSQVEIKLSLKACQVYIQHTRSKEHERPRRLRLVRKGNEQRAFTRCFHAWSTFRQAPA

For another experiment, the target named is T3, GST-FliI GLD 2–6 (mouse, UniProt Q9JJ28 619-1271).
T3 sequence (looked up): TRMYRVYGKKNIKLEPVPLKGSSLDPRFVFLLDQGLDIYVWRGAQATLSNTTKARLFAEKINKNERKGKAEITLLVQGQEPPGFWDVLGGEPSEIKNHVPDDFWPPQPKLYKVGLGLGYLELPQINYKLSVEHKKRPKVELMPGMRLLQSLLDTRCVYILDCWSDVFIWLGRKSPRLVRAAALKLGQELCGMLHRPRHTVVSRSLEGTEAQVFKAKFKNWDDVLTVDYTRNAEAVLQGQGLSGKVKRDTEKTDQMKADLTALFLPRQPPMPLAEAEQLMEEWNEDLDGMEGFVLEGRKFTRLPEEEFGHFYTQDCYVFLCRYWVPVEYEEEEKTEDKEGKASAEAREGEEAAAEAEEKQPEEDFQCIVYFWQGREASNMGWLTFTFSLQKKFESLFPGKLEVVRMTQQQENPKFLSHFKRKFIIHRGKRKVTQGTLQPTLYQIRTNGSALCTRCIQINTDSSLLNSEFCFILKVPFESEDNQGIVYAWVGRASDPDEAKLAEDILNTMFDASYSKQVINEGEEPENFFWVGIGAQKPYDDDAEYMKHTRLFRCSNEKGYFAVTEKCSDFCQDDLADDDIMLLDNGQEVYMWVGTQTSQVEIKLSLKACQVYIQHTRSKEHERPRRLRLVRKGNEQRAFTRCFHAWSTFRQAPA

“NMMIIA rods (residues 1338–1960) (from UniProt P35579 1338-1960) (domain or fragment)” returned a Kd with GST-FliI LRR (mouse) of 5070 nM.

B1: NMMIIA rods (residues 1338–1960) (domain or fragment, UniProt P35579 1338-1960, looked up)
chain: KNSFREQLEEEEEAKHNLEKQIATLHAQVADMKKKMEDSVGCLETAEEVKRKLQKDLEGLSQRHEEKVAAYDKLEKTKTRLQQELDDLLVDLDHQRQSACNLEKKQKKFDQLLAEEKTISAKYAEERDRAEAEAREKETKALSLARALEEAMEQKAELERLNKQFRTEMEDLMSSKDDVGKSVHELEKSKRALEQQVEEMKTQLEELEDELQATEDAKLRLEVNLQAMKAQFERDLQGRDEQSEEKKKQLVRQVREMEAELEDERKQRSMAVAARKKLEMDLKDLEAHIDSANKNRDEAIKQLRKLQAQMKDCMRELDDTRASREEILAQAKENEKKLKSMEAEMIQLQEELAAAERAKRQAQQERDELADEIANSSGKGALALEEKRRLEARIAQLEEELEEEQGNTELINDRLKKANLQIDQINTDLNLERSHAQKNENARQQLERQNKELKVKLQEMEGTVKSKYKASITALEAKIAQLEEQLDNETKERQAACKQVRRTEKKLKDVLLQVDDERRNAEQYKDQADKASTRLKQLKRQLEEAEEEAQRANASRRKLQRELEDATETADAMNREVSSLKNKLRRGDLPFVVPRRMARKGAGDGSDEEVDGKADGAEAKPAE
B1: the figures for the Kd with GST-FliI GLD 1–6 and with GST-FliI GLD 2–6 were 146 nM and 858 nM, respectively.
